Publication PMC9234716, “Comparative analysis defines a broader FMRFamide-gated sodium channel family and determinants of neuropeptide sensitivity” (The Journal of Biological Chemistry, 2022)
Where no end group is shown, it is not given here.

How the values were obtained:
[1] = test system: Capitella WaNaC^212912; test: Two-electrode voltage clamp of Xenopus oocytes expressing Capitella WaNaC 212912; assay type: cell-based, Capitella teleta
Protocol: (§1) Defolliculated stage V/VI oocytes from X. laevis were commercially acquired (Ecocyte Bioscience) and stored at 18 °C in 50% (in water) Leibovitz’s L-15 medium (Gibco) supplemented with additional 0.25 mg/ml gentamicin, 1 mM L-glutamine, and 15 mM Hepes, pH 7.6. Oocytes were injected with 2 ng cRNA (WT or mutant Aplysia FaNaC) and 2 to 60 ng cRNA (WT C. gigas XM_011442205.2, O. bimaculoides XM_014930938.1, L. gigantea XM_009055314.1_160261, P. fucata pfu_aug2.0_4392.1_09318.t1, C. teleta Capca1_207658, Capca1_52833, Capca1_185559, and Capca1_212912, M. lignano Mlig049925.g2, Mlig051885.g1, and Mlig041003.g1, P. australis g6004.t1 and g5063.t1 and R. norvegicus NP_077068.1 (rat ASIC1a) and respective mutants). Two-electrode voltage clamp experiments were performed 1 to 3 days after injection. The oocyte was placed in an RC-3Z bath (Warner Instruments) and bath solution (NaCl: 96 mM, KCl: 2 mM, CaCl2: 1.8 mM, MgCl2: 1 mM, Hepes: 5 mM; pH: 7.5) was perfused continuously and rapidly switched to bath solution containing peptide ligands via the VCS-8-pinch valve control perfusion system (Warner Instruments). […] Peptides were applied at varying concentrations between 30 nM and 100 μM for concentration-response experiments. […] Current recordings were analyzed in Clampfit 11.1 (Molecular Devices). […]

[2] = test system: Octopus FaNaC; test: Peptide-gated currents at oocytes expressing Octopus FaNaC; assay type: cell-based, Octopus bimaculoides; settings: peptides at 100 μM
Text: (§2) Figure 1 Phylogenetic and experimental characterization of the FaNaC family.A, FaNaC branch from DEG/ENaC phylogeny (full phylogeny in Fig. S1). ∗Genes tested here. ∞Genes tested elsewhere. Genes in bold encode peptide-gated channels. aLRT support for key branches is shown. Blue background, broader FaNaC family; green background, annelid-specific branch of FaNaCs with diverse ligand sensitivity; pink background, Wamide-activated channels (WaNaCs). B, example peptide-gated currents at Xenopus oocytes expressing indicated genes. All peptide applications 100 μM, except for some at Capitella FaNaC: FMRFa, FLRPa, FLRFa, and FMKFa (3 μM); LFRYa (30 μM). The scale bars represent x, 10 s; y, 5 μA. C, mean (± SEM) normalized current response to different peptides (concentrations as in (B)) at oocytes expressing indicated channels. Lighter symbols are individual data points, n = 4 to 7. FaNaC, FMRFa-gated sodium channel; FMRFa, Phe-Met-Arg-Phe-amide.

[3] = test system: Crassostrea FaNaC; test: Peptide-gated currents at oocytes expressing Crassostrea FaNaC; assay type: cell-based, Crassostrea gigas; settings: peptides at 100 μM
Text: as §2

[4] = molecular target: T1, rat ASIC1a (Rattus norvegicus, UniProt P55926); test: FRRFa enhancement of pH-gated currents at oocytes expressing WT or mutant rat ASIC1a; assay type: cell-based; settings: WT; 50 μM FRRFa; pH 5.3 after preincubation in desensitizing pH; n = 7
T1 construct: R. norvegicus NP_077068.1 (rat ASIC1a) and respective mutants; expressed in transfected cells; host or cells: Xenopus laevis oocytes (cRNA injection)
T1 sequence (P55926 1-526): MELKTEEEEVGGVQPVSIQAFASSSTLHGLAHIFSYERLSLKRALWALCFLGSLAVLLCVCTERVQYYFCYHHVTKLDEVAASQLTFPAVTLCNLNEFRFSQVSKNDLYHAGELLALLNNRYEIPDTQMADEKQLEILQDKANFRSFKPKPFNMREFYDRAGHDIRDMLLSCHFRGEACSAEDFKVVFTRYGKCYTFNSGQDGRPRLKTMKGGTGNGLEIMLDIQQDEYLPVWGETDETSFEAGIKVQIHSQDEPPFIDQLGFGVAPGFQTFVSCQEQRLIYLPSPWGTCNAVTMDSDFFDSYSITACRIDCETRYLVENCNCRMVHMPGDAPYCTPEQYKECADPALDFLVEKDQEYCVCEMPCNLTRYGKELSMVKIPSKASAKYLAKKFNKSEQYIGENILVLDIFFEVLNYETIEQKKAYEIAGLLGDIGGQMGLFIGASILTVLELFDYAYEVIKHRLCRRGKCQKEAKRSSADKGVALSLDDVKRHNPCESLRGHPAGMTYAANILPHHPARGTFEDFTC
Protocol: (§3) Figure 6 Determinants of FRRFa modulation of rat ASIC1a.A, pH 5.3 (filled black bars)-gated currents after preincubation in desensitizing pH (unfilled bars) alone or in 50 μM FRRFa (blue bars) at oocytes expressing WT or mutant rat ASIC1a (rASIC1a). The scale bars represent x, 10 s; y, 200 nA. Desensitizing pH described in Figure S4. B, mean (± SEM, n = 4–7) enhancement (currentb/currenta from (A)) of desensitized current amplitude by 50 μM FRRFa at indicated rat ASIC1a mutants. ASIC, acid-sensing ion channel.
(§4) Figure S4. Measurement of steady state desensitization and peptide modulation of rat ASIC1a mutants. (A) Left, example currents at an oocyte expressing a rat ASIC1a mutant in response to decreasing pH. Right, mean (± SEM, n = 3-4) normalized currents in response to decreasing pH. (B) Left, example currents at an oocyte expressing a rat ASIC1a mutant in response to pH 5.3 after pre-incubation in decreasing pH. Right, mean (± SEM, n = 3-4) normalized currents in response to decreasing pre-incubation pH. This established that pH 6.9 was strongly desensitizing for WT and most mutants, and pH 6.7 was strongly desensitizing for mutants K246A and V377A. (C) Example experiment showing: current response to activating pH (5.3) after pre-incubation in resting pH 7.8; current response ("a") to activating pH after 20 s pre-incubation in desensitizing pH (6.7 for this mutant); and current response ("b") to activating pH after 20 s pre-incubation in desensitizing pH plus 50 μM FRRFa. Dividing current amplitude "b" by that of "a" gives fold-enhancement by FRRFa in Fig. 6B. All scale bars: x, 10 s; y, 10 μA.

[5] = molecular target: T2, rat ASIC1a (Rattus norvegicus, UniProt P55926, K246A); test: as above; assay type: cell-based; settings: K246A mutant; 50 μM FRRFa; n = 6
T2 construct: R. norvegicus NP_077068.1 (rat ASIC1a) and respective mutants; expressed in transfected cells; host or cells: Xenopus laevis oocytes (cRNA injection)
T2 sequence (P55926 1-526 K246A): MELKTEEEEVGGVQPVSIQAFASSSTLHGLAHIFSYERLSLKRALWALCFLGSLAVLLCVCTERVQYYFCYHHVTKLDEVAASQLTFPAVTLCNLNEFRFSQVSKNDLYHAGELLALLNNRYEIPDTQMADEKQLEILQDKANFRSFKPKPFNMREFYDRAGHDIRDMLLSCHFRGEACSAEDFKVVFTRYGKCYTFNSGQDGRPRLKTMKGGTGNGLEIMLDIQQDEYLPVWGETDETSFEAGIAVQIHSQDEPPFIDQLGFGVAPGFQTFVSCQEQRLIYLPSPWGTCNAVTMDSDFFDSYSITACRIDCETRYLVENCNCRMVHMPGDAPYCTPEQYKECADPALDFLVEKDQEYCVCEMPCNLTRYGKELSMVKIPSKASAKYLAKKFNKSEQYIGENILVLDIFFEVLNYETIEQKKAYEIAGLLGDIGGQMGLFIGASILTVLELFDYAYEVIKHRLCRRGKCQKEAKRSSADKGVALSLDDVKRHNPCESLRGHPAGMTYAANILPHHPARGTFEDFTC
Protocol: as §3, §4

[6] = molecular target: T3, rat ASIC1a (Rattus norvegicus, UniProt P55926, S274A); test: as above; assay type: cell-based; settings: S274A mutant; 50 μM FRRFa; n = 6
T3 construct: R. norvegicus NP_077068.1 (rat ASIC1a) and respective mutants; expressed in transfected cells; host or cells: Xenopus laevis oocytes (cRNA injection)
T3 sequence (P55926 1-526 S274A): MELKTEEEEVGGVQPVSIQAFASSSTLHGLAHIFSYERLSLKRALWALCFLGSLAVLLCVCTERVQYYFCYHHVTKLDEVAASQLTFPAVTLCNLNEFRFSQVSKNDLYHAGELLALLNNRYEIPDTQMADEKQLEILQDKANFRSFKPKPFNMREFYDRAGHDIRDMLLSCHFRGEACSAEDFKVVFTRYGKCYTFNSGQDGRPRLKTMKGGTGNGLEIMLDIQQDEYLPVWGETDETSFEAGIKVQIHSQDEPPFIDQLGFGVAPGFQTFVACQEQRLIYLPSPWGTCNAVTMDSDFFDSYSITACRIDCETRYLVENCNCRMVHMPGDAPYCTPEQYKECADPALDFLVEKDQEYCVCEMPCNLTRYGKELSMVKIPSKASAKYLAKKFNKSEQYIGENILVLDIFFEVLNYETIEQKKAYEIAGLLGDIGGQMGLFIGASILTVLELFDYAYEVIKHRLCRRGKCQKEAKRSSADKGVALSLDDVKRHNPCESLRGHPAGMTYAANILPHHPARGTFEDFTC
Protocol: as §3, §4

[7] = test system: Malacoceros WaNaC^ON156824; test: Two-electrode voltage clamp of Xenopus oocytes expressing Malacoceros WaNaC ON156824; assay type: cell-based, Malacoceros fuliginosus; settings: WT channel, n = 9, mean ± SEM, read-out: KWGGNSRMWa EC50
[8] = test system: Capitella FaNaC^52833; test: Two-electrode voltage clamp of Xenopus oocytes expressing Capitella FaNaC 52833; assay type: cell-based, Capitella teleta; settings: WT; LFRYa 30 μM
Protocol: as §1

[9] = molecular target: T4, rat ASIC1a (acid-sensing ion channel 1a) (rat) (UniProt P55926)
T4 sequence: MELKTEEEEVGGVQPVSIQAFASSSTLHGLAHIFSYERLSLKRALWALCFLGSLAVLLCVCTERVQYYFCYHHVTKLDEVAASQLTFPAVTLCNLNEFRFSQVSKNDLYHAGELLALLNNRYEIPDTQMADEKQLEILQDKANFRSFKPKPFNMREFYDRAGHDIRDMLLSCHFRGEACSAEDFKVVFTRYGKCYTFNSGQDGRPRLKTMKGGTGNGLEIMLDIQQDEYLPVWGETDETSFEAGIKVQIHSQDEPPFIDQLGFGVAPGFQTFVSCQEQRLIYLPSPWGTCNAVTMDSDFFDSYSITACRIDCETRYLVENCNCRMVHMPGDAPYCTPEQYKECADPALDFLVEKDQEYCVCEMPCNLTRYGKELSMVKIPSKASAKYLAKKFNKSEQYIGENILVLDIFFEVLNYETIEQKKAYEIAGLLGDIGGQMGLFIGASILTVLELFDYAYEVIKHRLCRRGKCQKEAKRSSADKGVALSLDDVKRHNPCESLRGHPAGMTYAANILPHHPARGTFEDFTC

[10] = molecular target: T5, rat ASIC1a S274A (rat) (UniProt P55926)
T5 sequence: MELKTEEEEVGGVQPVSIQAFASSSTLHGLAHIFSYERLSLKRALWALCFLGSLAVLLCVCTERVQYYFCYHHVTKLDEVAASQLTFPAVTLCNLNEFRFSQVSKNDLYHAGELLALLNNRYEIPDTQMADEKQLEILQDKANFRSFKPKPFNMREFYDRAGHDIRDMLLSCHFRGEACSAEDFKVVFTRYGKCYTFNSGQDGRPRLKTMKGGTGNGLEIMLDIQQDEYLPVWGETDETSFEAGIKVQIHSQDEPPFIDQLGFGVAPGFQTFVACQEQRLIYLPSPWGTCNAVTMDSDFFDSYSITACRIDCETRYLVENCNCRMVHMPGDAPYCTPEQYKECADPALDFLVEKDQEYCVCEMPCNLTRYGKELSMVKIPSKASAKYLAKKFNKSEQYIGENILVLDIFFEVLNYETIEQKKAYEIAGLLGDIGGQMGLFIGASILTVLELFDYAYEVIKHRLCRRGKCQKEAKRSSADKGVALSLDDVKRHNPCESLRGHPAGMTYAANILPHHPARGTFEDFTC

[11] = molecular target: Malacoceros fuliginosus WaNaC^ON156824 (Malacoceros fuliginosus)
[12] = molecular target: Capitella teleta WaNaC^212912 (Wamide-gated sodium channel) (Capitella teleta)
[13] = molecular target: Capitella teleta FaNaC^52833 (Capitella teleta)
[14] = molecular target: Malacoceros fuliginosus FaNaC^ON156825 (Malacoceros fuliginosus)
[15] = molecular target: Malacoceros fuliginosus FaNaC^ON156826 (Malacoceros fuliginosus)
[16] = molecular target: Aplysia kurodai FaNaC (FMRFa-gated sodium channel) (Aplysia kurodai)
[17] = molecular target: Aplysia kurodai FaNaC S184A (Aplysia kurodai)

AWVGDKSLSW-NH2 [AWVGDKSLSWa]
AWVGDKSLSWa-gated currents ([1]; R255Q, R291N and R472Q mutations): abolished
EC50 ([1]; WT channel, Xenopus oocytes, n = 8, mean ± SEM, read-out: AWVGDKSLSWa EC50): 2000 ± 200 nM

FLRFa: peptide encoded by the Octopus FMRFa propeptide (FLRF-NH2)
current amplitude relative to FMRFa [2]: larger currents than FMRFa
current amplitude relative to FMRFa [3]: slightly larger currents than FMRFa

FMKFa: peptide encoded by the Octopus FMRFa propeptide (FMKF-NH2)
current amplitude relative to FMRFa [2]: larger currents than FMRFa

FRRFa: synthetic FMRFa analog that enhances ASICs (FRRF-NH2)
enhancement of pH-gated currents [4]: 10 ± 3 fold
enhancement of pH-gated currents [5]: not ostensibly enhanced at all
enhancement of pH-gated currents [6]: 2 ± 0.3 fold

KWGGNSRMW-NH2 [KWGGNSRMWa]
EC50 [7]: 340 ± 100 nM

LFRYa: product of the RYamide propeptide from Capitella (LFRY-NH2)
current response to peptide [8]: small currents

FRRF-NH2 [FRRFa]
fold enhancement of desensitized pH 5.3-gated current by 50 μM FRRFa, two-electrode voltage clamp on Xenopus oocytes [9]: 10 fold
fold enhancement of desensitized pH 5.3-gated current by 50 μM FRRFa, two-electrode voltage clamp on Xenopus oocytes [10]: 2 fold

KWGGNSRMW-NH2
EC50 of peptide-gated current, two-electrode voltage clamp on Xenopus oocytes [11]: 340 nM

AWVGDKSLSW-NH2
EC50 of peptide-gated current, two-electrode voltage clamp on Xenopus oocytes [12]: 2000 nM

FMRF-NH2 [FMRFamide (Phe-Met-Arg-Phe-amide)]
EC50 of peptide-gated current, two-electrode voltage clamp on Xenopus oocytes [13]: 350 nM
EC50 of peptide-gated current, two-electrode voltage clamp on Xenopus oocytes [14]: 230 nM
EC50 of peptide-gated current, two-electrode voltage clamp on Xenopus oocytes [15]: 11000 nM
EC50 of FMRFa-gated current, two-electrode voltage clamp on Xenopus oocytes [16]: 3400 nM
I (3 μM)/I (30 μM) ratio of FMRFa potency (3 μM FMRFa-gated current amplitude/30 μM FMRFa-gated current amplitude) [16]: 0.64
EC50 of FMRFa-gated current, full concentration-response, two-electrode voltage clamp on Xenopus oocytes [17]: 30000 nM
